Test results from paper PMC3749939.

Target: Mutant H2A.Z^AP3-YFP (mouse)
Assay: co-IP; immunoprecipitation with GFP antibodies of the YFP-tagged histone from dox-induced transgenic ESCs (endogenous H2A.Z knockdown background), immunoblot of the partners; uninduced cells (No DOX) as negative controls; densitometry in ImageJ

B1: NAP1L1 (natural protein)
chain: MADIDNKEQSELDQDLEDVEEVEEEETGEETKIKARQLTVQMMQNPQILAALQERLDGLVDTPTGYIESLPKVVKRRVNALKNLQVKCAQIEAKFYEEVHDLERKYAVLYQPLFDKRFEIINAIYEPTEEECEWKPDEEDEVSEELKEKAKIEDEKKDEEKEDPKGIPEFWLTVFKNVDLLSDMVQEHDEPILKHLKDIKVKFSDAGQPMSFVLEFHFEPNDYFTNEVLTKTYRMRSEPDDSDPFSFDGPEIMGCTGCQIDWKKGKNVTLKTIKKKQKHKGRGTVRTVTKTVSNDSFFNFFAPPEVPENGDLDDDAEAILAADFEIGHFLRERIIPRSVLYFTGEAIEDDDDDYDEEGEEADEEGEEEGDEENDPDYDPKKDQNPAECKQQ
- fold of NAP1L1 bound against H2A.Z^WT: < 2 fold
